We go through 1 substance from US20260001937A1, “NOVEL RECOMBINANT FIBRINOGEN VARIANTS FOR FIBRIN SEALANTS FOR SURGICAL WOUND CARE” (Julius-Maximilians-Universität Würzburg, priority 2022, published 2026).

One data set has as its target T1, FXIIIa (Homo sapiens, UniProt P00488).
T1 construct: purchased CSL Behring Fibrogammin
T1 sequence (P00488 39-732 limits assumed): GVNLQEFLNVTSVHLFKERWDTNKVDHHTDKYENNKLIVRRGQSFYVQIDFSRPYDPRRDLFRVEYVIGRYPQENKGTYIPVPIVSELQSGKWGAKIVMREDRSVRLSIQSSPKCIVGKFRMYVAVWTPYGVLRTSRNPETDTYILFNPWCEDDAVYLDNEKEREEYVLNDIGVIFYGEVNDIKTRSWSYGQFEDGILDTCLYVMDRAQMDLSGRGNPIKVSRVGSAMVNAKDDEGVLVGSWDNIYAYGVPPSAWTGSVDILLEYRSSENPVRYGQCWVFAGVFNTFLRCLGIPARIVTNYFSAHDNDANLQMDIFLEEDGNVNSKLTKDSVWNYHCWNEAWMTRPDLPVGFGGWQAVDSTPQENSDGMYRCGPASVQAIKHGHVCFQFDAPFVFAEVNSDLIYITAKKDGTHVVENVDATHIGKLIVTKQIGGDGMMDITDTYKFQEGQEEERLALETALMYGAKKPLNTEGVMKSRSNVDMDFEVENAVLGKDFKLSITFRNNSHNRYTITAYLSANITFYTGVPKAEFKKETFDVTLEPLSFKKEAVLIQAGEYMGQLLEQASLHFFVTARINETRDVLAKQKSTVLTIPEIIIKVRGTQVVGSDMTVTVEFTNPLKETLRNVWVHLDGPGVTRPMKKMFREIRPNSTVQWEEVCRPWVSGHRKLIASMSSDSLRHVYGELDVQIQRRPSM
Description: FXIIIa-catalyzed cross-linking of fibrin (SDS-PAGE, reducing). Format: biochemical. As to the method:
FIG. 27: FXIIIa-catalyzed cross-linking of fibrinogen. Crosslinking of His-rFbgH433R435 by rFXIIIa was examined with SDS-PAGE, under reducing conditions. Fibrinogen (0.1 mg/mL) was mixed with FXIIIa (0.5 mU/mL) and thrombin (0.05 U/mL), and the reaction was incubated for the specified time at 37° C. The reduced fibrin chains (α, β, γ, cross-linked γ-γ dimer) are indicated on the right side of the gel.
To examine cross-linking of fibrin, fibrinogen (0.1 mg/mL) was incubated at 37° C. with FXIIIa ([…]) and human-thrombin (final concentration, 0.05 U/mL) in Tris-buffer and CaCl2 (10 mM). The reactions were stopped at various times by addition of an equal volume of sodium dodecyl sulfate (SDS) sample buffer with 2-mercaptoethanol and incubation (5 min) at 90° C. Samples were separated on SDS-polyacrylamide gel electrophoresis (SDS-PAGE) and stained with Coomassie brilliant blue.

For another data set, the target named is thrombin (Homo sapiens, UniProt P00734). Description: Thrombin-catalyzed fibrin polymerization, turbidity at 350 nm. Format: biochemical. The following applies: fibrinogen 0.1 mg/mL, thrombin 0.05 U/mL. As to the method:
FIG. 26: Thrombin-catalyzed fibrin polymerization. Polymerization of fibrinogen (0.1 mg/mL) was initiated by the addition of thrombin (0.05 U/mL), factor XIIIa (Fibrogammin®, CSL Behring) (50 mU/ml) as well as CaCl2 (10 mM). The change in turbidity at 350 nm was followed with time (0-3600 sec). Representative polymerization curves of plasma Fibrinogen (square) and His-rFbgH433R435 (triangle).
Turbidity experiments were conducted on a Tecan Infinite M Plex plate reader at 37° C. A 96-well plate with a final volume of 100 μl per well was used and was experiments were performed in triplicate. The Thrombin-catalyzed fibrin polymerization of fibrinogen (0.1 mg/mL) was initiated by the addition of thrombin (0.05 U/mL), factor Xllla (Fibrogammin®, CSL Behring; 50 mU/ml) as well as CaCl2 (10 mM). The change in turbidity at 350 nm was followed over time (0-3600 sec).

The next data set deals with ExpiCHO-S cells. Description: α-chain degradation of recombinant fibrinogen during CHO cell expression (SDS-PAGE, in-gel digest MS). Format: cell-based, Chinese hamster. The settings on record: no protease inhibitor added. How it is done: Fibrinogen variants were expressed according to the user manual (Thermo Scientific, Waltham, USA). Briefly, ExpiCHO-S™ cells (Thermo Scientific, Waltham, USA) were cultured to a final density of 10×10^6 cells/mL. Plasmids encoding for the different fibrinogen variants (0.8 μg/mL of culture) as well as ExpiFectamine™ CHO (Thermo Scientific, Waltham, USA) were diluted in 5 mL of cold OptiPro™ medium (Thermo Scientific, Waltham, USA) and incubated for 5 min at RT. The ExpiFectamine™ CHO/DNA complex was transferred to the shaker flask and incubated at 37° C. and 8% CO2 and 130 rpm. After 24 h of incubation, ExpiFectamine™ CHO Enhancer and ExpiFectamine™ CHO Feed (Thermo Scientific, Waltham, USA) were added to the culture flask. The culture flasks were transferred to an incubator at 32° C. and 8% CO2 with shaking at 130 rpm. This step was repeated after 4 days of incubation. After another incubation step of up to 7 days at 32° C. and 8% CO2 and 130 rpm cells were harvested and centrifuged at 3000 rpm for 15 minutes. […]
Purified proteins and conjugates were analyzed using Tris-glycine SDS-PAGE either with or without the addition of β-mercaptoethanol as described before.58 Gels were stained with Coomassie Brilliant Blue G250 and documented using FluorChem FC2 imaging system (Protein Simple, Santa Clara, USA). […]

Regarding “His-rFbgH433R435: Aα, Bβ- and γ-chain fibrinogen; α-chain L433H, T435R (SEQ ID 79), γ-chain K88H, K111H, K382H, K399H (SEQ ID 80)”, the “formation of functional fibrin gels” value with FXIIIa (conclusion from polymerization and cross-linking experiments) is recorded as “forms functional fibrin gels”. The “incubation time after which cross-linked γ-γ-dimer bands were visible” value with FXIIIa (fibrinogen 0.1 mg/mL, FXIIIa 0.5 U/mL, thrombin 0.05 U/mL, CaCl2 10 mM, 37° C.) turned out to be 5 min. Also, the “thrombin-induced fibrin polymerization compared with control (pFbg)” value with thrombin (factor XIIIa 50 mU/ml, CaCl2 10 mM, 37° C., 0-3600 sec) is “slightly reduced”. Besides, in the data set with thrombin (turbidity 350 nm), the “absorption in fibrin polymerization compared with control (pFbg)” value is “comparable” and the “lag time of fibrin polymerization compared with control (pFbg)” value is “similar”. Besides, in the data set on ExpiCHO-S cells, the “α-chain degradation during CHO cell protein expression” value was “not detectable”.
